What was measured:
nanog_mouse Nanog [1] = biological target: nanog_mouse Nanog (UniProt Q80Z64)
nanog_mouse Nanog [2] = biological target: nanog_mouse Nanog (UniProt Q80Z64); remark: listed apart in the source
nanog_mouse Nanog [3] = biological target: nanog_mouse Nanog (UniProt Q80Z64); remark: listed apart in the source

Chain of nanog_mouse Nanog (Q80Z64 whole entry): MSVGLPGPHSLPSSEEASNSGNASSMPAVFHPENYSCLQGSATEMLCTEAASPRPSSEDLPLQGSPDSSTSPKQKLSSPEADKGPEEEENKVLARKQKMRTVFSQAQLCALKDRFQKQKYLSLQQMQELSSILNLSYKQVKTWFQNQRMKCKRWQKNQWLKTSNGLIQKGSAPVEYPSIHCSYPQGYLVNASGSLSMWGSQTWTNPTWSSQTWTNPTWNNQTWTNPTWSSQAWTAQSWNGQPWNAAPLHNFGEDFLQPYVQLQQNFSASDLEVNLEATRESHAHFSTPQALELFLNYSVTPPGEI
Chain of Transcription factor SOX-2 (Mus musculus), P48432 T217A (P48432 whole entry T217A): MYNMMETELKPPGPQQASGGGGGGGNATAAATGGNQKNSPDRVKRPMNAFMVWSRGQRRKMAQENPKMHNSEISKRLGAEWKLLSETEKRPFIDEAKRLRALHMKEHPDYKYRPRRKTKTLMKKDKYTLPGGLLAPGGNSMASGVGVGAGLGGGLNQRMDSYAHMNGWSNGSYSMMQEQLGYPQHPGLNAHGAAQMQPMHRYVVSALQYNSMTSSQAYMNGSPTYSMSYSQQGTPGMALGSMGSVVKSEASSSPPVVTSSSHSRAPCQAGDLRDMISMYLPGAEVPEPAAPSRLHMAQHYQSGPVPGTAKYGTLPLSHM
Chain of Transcription factor SOX-2 (Mus musculus), P48432 T217A;T224A;S228A (P48432 whole entry T217A/T224A/S228A): as the sequence (P48432 whole entry T217A) above, with T224A, S228A counted along it
Chain of Transcription factor SOX-2 (Mus musculus), P48432 S228A (P48432 whole entry S228A): as the sequence (P48432 whole entry T217A) above, with A217T, S228A counted along it
Chain of Transcription factor SOX-2 (Mus musculus), P48432 T224A (P48432 whole entry T224A): as the sequence (P48432 whole entry T217A) above, with A217T, T224A counted along it

Substance: Transcription factor SOX-2 (Mus musculus), P48432 T217A;T224A;S228A
- effect of a mutation on the interaction (nanog_mouse Nanog [1]): disrupting interaction

Substance: Transcription factor SOX-2 (Mus musculus), P48432 S228A
- effect of a mutation on the interaction (nanog_mouse Nanog [2]): disrupting interaction

Substance: Transcription factor SOX-2 (Mus musculus), P48432 T217A
- effect of a mutation on the interaction (nanog_mouse Nanog [3]): disrupting interaction

Substance: Transcription factor SOX-2 (Mus musculus), P48432 T224A
- effect of a mutation on the interaction (nanog_mouse Nanog [2]): disrupting interaction
